Measurements: patent publication US20160031996A1 (CSL, published 2016)
Changes are numbered by the printed parent chain. Values belong to the binder of their own block, whether it stands above or below them.

How the values were obtained:
[1] = biological target: T1, chimera of human IL-3Rα residues 101-377 with GM-CSFRα domains (human, UniProt P15509 23-114); test: flow cytometry, transfected 293F cells
T1 construct: on 293F cells
T1 sequence: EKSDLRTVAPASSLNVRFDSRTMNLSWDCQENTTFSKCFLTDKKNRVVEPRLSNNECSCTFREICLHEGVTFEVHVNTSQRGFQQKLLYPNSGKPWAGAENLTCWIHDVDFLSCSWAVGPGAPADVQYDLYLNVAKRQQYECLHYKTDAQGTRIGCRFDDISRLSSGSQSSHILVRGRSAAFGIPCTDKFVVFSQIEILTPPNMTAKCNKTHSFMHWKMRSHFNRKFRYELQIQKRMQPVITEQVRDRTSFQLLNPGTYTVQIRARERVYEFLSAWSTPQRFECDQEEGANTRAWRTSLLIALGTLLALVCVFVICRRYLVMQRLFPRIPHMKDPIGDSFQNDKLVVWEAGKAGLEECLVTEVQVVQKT
Description: Expression constructs were generated of frill length human IL-3Rα or of proteins comprising hIL-3Rα domains with various GM-CSFRα domains as depicted in FIG. 1A. […] Results are tabulated in Table 1 with positive staining (+) and negative staining (−) indicated.

[2] = biological target: T2, full length human IL-3Rα, wild type (human, UniProt P26951 19-378); test: flow cytometry, MFI normalised to WT (reference, set as 100%)
T2 construct: expressed in 293F cells; also called WT
T2 sequence: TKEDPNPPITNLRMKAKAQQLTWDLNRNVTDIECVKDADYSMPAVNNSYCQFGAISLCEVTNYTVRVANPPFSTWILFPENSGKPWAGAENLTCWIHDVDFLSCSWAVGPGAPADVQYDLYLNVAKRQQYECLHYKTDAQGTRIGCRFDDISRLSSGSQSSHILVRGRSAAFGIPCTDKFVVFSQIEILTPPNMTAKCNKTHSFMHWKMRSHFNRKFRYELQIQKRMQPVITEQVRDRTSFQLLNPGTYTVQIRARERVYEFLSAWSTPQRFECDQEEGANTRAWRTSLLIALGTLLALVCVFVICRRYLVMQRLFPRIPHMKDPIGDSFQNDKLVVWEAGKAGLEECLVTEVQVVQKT
Experimental: Median fluorescence intensity (MFI) of each antibody was determined for WT IL-3Rα and for each IL-3Rα mutant. The MFI of WT IL-3Rα staining for each antibody was set as 100% then the MFI of each mutant was normalized to a percent of WT staining.

[3] = biological target: T3, human IL-3Rα E51Q/S59A double mutant, full length (human, UniProt P26951 19-378); test: flow cytometry on transfected cells (FIG. 5)
T3 chain: T2 sequence with E33Q, S41A

[4] = biological target: T4, human IL-3Rα E51Q/P88T double mutant, full length (human, UniProt P26951 19-378); test: flow cytometry on transfected cells (FIG. 5)
T4 chain: T2 sequence with E33Q, P70T

[5] = biological target: T5, human IL-3Rα E51Q/S59A/P88T triple mutant, full length (human, UniProt P26951 19-378); test: flow cytometry on transfected cells (FIG. 5)
T5 chain: T2 sequence with E33Q, S41A, P70T

[6] = biological target: T6, human IL-3Rα S59A/P88T double mutant, full length (human, UniProt P26951 19-378); test: flow cytometry on transfected cells (FIG. 5)
T6 chain: T2 sequence with S41A, P70T

binding result [1]: no binding | MFI as percent of WT staining [2]: 100 % of WT MFI
B1: monoclonal antibody 7G3 (antibody, V domains shown)
VH: EVQLQQSGPELVKPGASVKMSCKASGYTFTDYYMKWVKQSHGKSLEWIGDIIPSNGATFYNQKFKGKATLTVDRSSSTAYMHLNSLTSEDSAVYYCTRSHLLRASWFAYWGQGTLVTVSA
VL: DFVMTQSPSSLTVTAGEKVTMSCKSSQSLLNSGNQKNYLTWYLQKPGQPPKLLIYWASTRESGVPDRFTGSGSGTDFTLTISSVQAEDLAVYYCQNDYSYPYTFGGGTKLEIKR
notes: mouse monoclonal antibody (hybridoma ATCC HB-12009)

binding result [3]: no binding | binding result [4]: no binding | binding result [5]: no binding | binding result [6]: no binding
B2: antibody CSL362 (antibody, V domains shown)
VH: EVQLVQSGAEVKKPGESLKISCKGSGYSFTDYYMKWARQMPGKGLEWMGDIIPSNGATFYNQKFKGQVTISADKSISTTYLQWSSLKASDTAMYYCARSHLLRASWFAYWGQGTMVTVSS
VL: DIVMTQSPDSLAVSLGERATINCESSQSLLNSGNQKNYLTWYQQKPGQPPKPLIYWASTRESGVPDRFSGSGSGTDFTLTISSLQAEDVAVYYCQNDYSYPYTFGQGTKLEIKR
